Target: gp120 of HIV-1 strain IIIB (HIV-1 IIIB)

B1: murine monoclonal antibody NM-01 (antibody, V domains shown)
VH: QIQLKESGPAVIKPSQSLSLTCIVSGFSITSSSYCWHWIRQPPGKGLEWMGRICYEGSIDYSPSIKSRSTISRDTSLNRFFIQLSSVTNEDTAMYYCSRENHGTTTSMDYWGQGTSVTVSS
VL: DIVLTQSPASLAVSLGQRATISCRASESVDSYGNSFMHWYQQKPGQSPKLLIYVASNLESGVPARFSGSGSRTDFTLTIDPVEADDAATYYCQQNNEDPLTFGAGTKLELK
  50% neutralization by the p24 assay: 0.15 µg/mL
  ID50 (reverse transcriptase assay): 0.2 µg/mL

From patent US5607847
